The source of these data is patent publication US20120171723A1.

In this experiment the target is human zFGF5 (FGF homolog polypeptide) (human) (UniProt O76093). Put plainly: cell-based or functional assay.
Sequence of human zFGF5 (FGF homolog polypeptide) (human) (O76093 28-207): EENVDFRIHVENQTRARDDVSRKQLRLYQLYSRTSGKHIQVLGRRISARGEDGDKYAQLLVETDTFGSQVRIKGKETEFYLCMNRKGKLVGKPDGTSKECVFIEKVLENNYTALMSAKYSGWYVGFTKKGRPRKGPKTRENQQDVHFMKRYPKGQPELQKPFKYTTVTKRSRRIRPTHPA

“FGFR3α-IIIc/Fc soluble receptor (Fc fusion)” returned a Cell Proliferation (percent of control) at 0 fold-excess of soluble receptor (percent of control) of 100, a Cell Proliferation (percent of control) at 0.8 fold-excess of soluble receptor (percent of control) of 85, a Cell Proliferation (percent of control) at 1.6 fold-excess of soluble receptor (percent of control) of 66 and a Cell Proliferation (percent of control) at 3.2 fold-excess of soluble receptor (percent of control) of 37. This substance also registered a Cell Proliferation (percent of control) at 6.3 fold-excess of soluble receptor (percent of control) of 5, a Cell Proliferation (percent of control) at 12.5 fold-excess of soluble receptor (percent of control) of 1, a Cell Proliferation (percent of control) at 25 fold-excess of soluble receptor (percent of control) of 0.2 and a Cell Proliferation (percent of control) at 50 fold-excess of soluble receptor (percent of control) of 0. Besides, the Cell Proliferation (percent of control) at 100 fold-excess of soluble receptor (percent of control) was 0.
Take “FGFR2α-IIIb/Fc soluble receptor (from UniProt P21802 22-378) (Fc fusion)”: the Cell Proliferation (percent of control) at 0 fold-excess of soluble receptor (percent of control) stood at 100, the Cell Proliferation (percent of control) at 62.5 fold-excess of soluble receptor (percent of control) is 101, the Cell Proliferation (percent of control) at 125 fold-excess of soluble receptor (percent of control) was 90 and the Cell Proliferation (percent of control) at 250 fold-excess of soluble receptor (percent of control) was 91. This substance had a Cell Proliferation (percent of control) at 500 fold-excess of soluble receptor (percent of control) of 101 and a Cell Proliferation (percent of control) at 1000 fold-excess of soluble receptor (percent of control) of 99.
